Experiments:
[1] = molecular target: T1, human CD38 on the cell surface (Raji and other human tumor cell lines) (human, UniProt P28907 1-300); experiment: flow cytometry, VivoTag645-labeled, human CD38 expressing Raji tumor cells, 4 °C, 1 hour, gMFI
T1 construct: whole, on cells; also called cell surface CD38
Description: (§1) FIG. 26. […] Extent of cell surface binding was assessed by flow cytometry. […]

[2] = molecular target: T2, cynomolgus monkey CD38 (CHO cells stably expressing cyno CD38) (cynomolgus monkey, UniProt Q5VAN0 1-301); experiment: flow cytometry, VivoTag645-labeled, CHO cells stably expressing cyno CD38, 4 °C, 1 hour, gMFI
T2 construct: whole, on cells
T2 sequence (Q5VAN0 whole entry): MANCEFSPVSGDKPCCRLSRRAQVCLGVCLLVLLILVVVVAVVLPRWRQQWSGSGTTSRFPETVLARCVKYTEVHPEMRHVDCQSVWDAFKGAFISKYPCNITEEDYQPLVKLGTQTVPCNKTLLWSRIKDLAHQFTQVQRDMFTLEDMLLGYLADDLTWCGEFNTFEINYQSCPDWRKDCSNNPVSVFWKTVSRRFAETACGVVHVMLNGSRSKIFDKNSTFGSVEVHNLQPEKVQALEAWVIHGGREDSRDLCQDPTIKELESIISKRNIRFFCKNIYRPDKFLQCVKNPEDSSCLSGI
Description: as §1

B1: S1A-AA-Cyno (anti-Cyno CD38 mAb) (antibody, V domains shown)
VH: QLLESGGGLVQPGGSLRLSCAASGFTFDDYGMSWVRQAPGKGLEWVSDISWNGGKTHYVDSVKGQFTISRDNSKNTLYLQMNSLRAEDTAVYYCARGSLFHDSSGFYFGHWGQGTLVTVSS
VL: QSVLTQPPSASGTPGQRVTISCSGSSSNIGDNYVSWYQQLPGTAPKLLIYRDSQRPSGVPDRFSGSKSGTSASLAISGLRSEDEADYYCQSYDSSLSGSVFGGGTKLTVLG
modifications: VivoTag645 dye label in the flow cytometry assays
notes: Surrogate anti-CD38 human monoclonal IgG1 antibody; VivoTag645-labeled in flow cytometry; also called SIA-AA-Cyno; S1A-AA-Cyno CD38
[1]
  EC50 (read off the curve): ~0.8 nM
[2]
  binding result: binds

— patent publication US20210269546A1 (MOMENTA PHARMACEUTICALS, published 2021)
